Patent US10828372B2, “Compositions and methods for the inhibition of fibrosis” (WISCONSIN ALUMNI RESEARCH FOUNDATION, priority 2017, dated 2020)
Where no end group is shown, it is not given here.

How the values were obtained:
[1] = tested on: human foreskin fibroblasts, AH1F cells; assay: Cell viability of fibroblast monolayers in matrix assembly assays (Cell Titer-Glo / AlamarBlue); assay type: cell-based; conditions: for cell viability: doses ranging from 1 to 20 μM
Experimental: Microtiter fibronectin matrix assembly assays: Exogenous plasma fibronectin matrix assembly assay: Binding and incorporation of AlexaFluor® 488-plasma fibronectin (A488-FN) to fibroblast monolayers (human foreskin fibroblasts, AH1F cells was carried out using methods known in the art. Briefly, fibroblasts (60000 per well) were allowed to adhere and spread for 2 hours in microtiter plates in 2% fetal calf serum (FCS)-containing DMEM. Peptides or modulators to be tested were added followed by 28 nM A488-FN. Cell monolayers with or without peptides and A488FN were incubated overnight at 37° C. with 5% CO2. Cell monolayers in microwells were washed with PBS or HBSS containing Ca^2+, Mg^2+. Fluorescence in 96-well plates was read using a microplate reader using bottom-readout capabilities at 485 nm excitation and 525 nm emission with 20 nm bandwidths. To estimate cell viability per well after the washes and measurement of fluorescence, an equal volume of luminescence reagent (Cell Titer-Glo®) was added followed by quantification of luminescence. Fluorescence of wells to which A488FN had not been added, i.e. intrinsic fluorescence of the cell monolayer was subtracted from fluorescence values of wells containing ligand. Data is presented respectively for fibronectin fibrillogenesis or cell viability as percent of fluorescence or luminescence values for wells with no peptides. Microplate microscopy was used to ascertain that fluorescence measurements correspond to fibrillary fibronectin.
Endogenous (cellular) fibronectin assembly assay: This immunochemical assay measures the ECM incorporation of EDA-containing fibronectin synthesized by human fibroblasts and human proximal tubular epithelial cells. Human proximal epithelial cells, HK-2 cells, were obtained from ATCC (CRL-2190). The EDA+ fibronectin is a splice variant synthesized and secreted by a variety of cells mostly during embryonic development and during wound healing, ECM remodeling, or fibrotic conditions in the adult. Fibroblasts (AH1F) were cultured in DMEM (Gibco) containing 10% fetal calf serum, and human proximal tubular epithelial cells (HK-2) were cultured in keratinocyte serum free medium (KSFM, containing pituitary extract and rEGF, Invitrogen/Thermo Fisher). Both media also contained 2.5 mM glutamine, 100 IU/ml penicillin, and 100 μg/ml streptomycin. […] Fluorescence of AlamarBlue® was read at 555 nm excitation and 585 nm emission. […] Similar to the measurement of exogenous A488-FN fluorescence, A488-EDA fluorescence was read using microplate reader equipped with bottom-readout capabilities at 485 nm excitation and 525 nm emission. […]

[2] = tested on: human proximal tubular epithelial cells (HK-2); assay: Cell viability of proximal tubular epithelial cells (AlamarBlue); assay type: cell-based; conditions: doses up to 500 nM
From the text: Endogenous (cellular) fibronectin assembly assay: This immunochemical assay measures the ECM incorporation of EDA-containing fibronectin synthesized by human fibroblasts and human proximal tubular epithelial cells. Human proximal epithelial cells, HK-2 cells, were obtained from ATCC (CRL-2190). The EDA+ fibronectin is a splice variant synthesized and secreted by a variety of cells mostly during embryonic development and during wound healing, ECM remodeling, or fibrotic conditions in the adult. […] Fluorescence of AlamarBlue® was read at 555 nm excitation and 585 nm emission. […] Similar to the measurement of exogenous A488-FN fluorescence, A488-EDA fluorescence was read using microplate reader equipped with bottom-readout capabilities at 485 nm excitation and 525 nm emission. Fluorescence of wells to which A488-IgG was added, i.e., background green fluorescence from non-specific IgG binding and from the cell monolayer was subtracted from fluorescence values of wells incubated with A488-EDA. Data is presented for fibronectin fibrillogenesis or cell viability as percent of fluorescence values (AlexaFluor® 488 fluorescence or AlamarBlue®, respectively) for wells with no peptides.

[3] = tested on: UUO kidneys; assay: Unilateral Ureteral Obstruction (UUO) model of kidney fibrosis; assay type: in vivo, mouse; conditions: compared to saline-treated UUOs

Substance | cell viability [1] [%] | decrease in fibroblast viability ([1]; highest concentration tested (500 nM)) | human proximal tubular epithelial cell viability [2] | decrease of fibronectin in ECM fractions (immunoblot, normalized to H3) [3] | fibroblast viability ([1]; doses up to 500 nM)
FUD: 49 amino acid FUD peptide, SEQ ID NO: 1, recombinantly expressed, His-tag removed; inhibitor of fibronectin fibrillogenesis (KDQSPLAGESGETEYITEVYGNQQNPVDIDKKLPNETGFSGNMVETEDT; human) [reference compound] | 80 | approximately 20% | approximately 100% | approximately 60% | 
PEG-FUD: PEGylated FUD prepared as in Example 1, PEG size not stated; approximately 27 kDa by mass spectrometry, likely the 20 kDa conjugate (KDQSPLAGESGETEYITEVYGNQQNPVDIDKKLPNETGFSGNMVETEDT; not fully specified (N-terminus); also: PEG size not given here) | 80 |  | approximately 100% | approximately 80% | approximately 100%
